The test system of the data set is RSK2.
RSK2, sequence (chain, as listed by the source): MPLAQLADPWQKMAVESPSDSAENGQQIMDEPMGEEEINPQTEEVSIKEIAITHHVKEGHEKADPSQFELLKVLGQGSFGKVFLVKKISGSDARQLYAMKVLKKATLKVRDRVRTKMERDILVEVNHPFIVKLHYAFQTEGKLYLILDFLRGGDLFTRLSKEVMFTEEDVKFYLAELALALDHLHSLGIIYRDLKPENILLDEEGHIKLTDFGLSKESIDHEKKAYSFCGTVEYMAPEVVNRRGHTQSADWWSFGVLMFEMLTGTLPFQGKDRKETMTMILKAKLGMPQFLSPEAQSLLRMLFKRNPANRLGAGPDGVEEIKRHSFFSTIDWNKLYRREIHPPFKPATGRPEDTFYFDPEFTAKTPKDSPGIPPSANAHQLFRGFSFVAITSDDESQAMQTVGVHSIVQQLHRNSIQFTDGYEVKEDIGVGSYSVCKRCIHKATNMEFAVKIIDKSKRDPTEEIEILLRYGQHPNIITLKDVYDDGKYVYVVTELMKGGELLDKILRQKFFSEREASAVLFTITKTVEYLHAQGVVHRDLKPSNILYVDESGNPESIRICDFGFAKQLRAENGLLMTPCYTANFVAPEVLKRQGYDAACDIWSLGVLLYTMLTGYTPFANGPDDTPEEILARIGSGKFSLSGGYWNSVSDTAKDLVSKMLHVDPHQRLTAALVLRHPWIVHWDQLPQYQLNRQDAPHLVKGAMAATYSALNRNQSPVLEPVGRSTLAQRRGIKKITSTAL

Turning to WWP1, the RSK2 ubiquitination entry is “SHN3 and WWP1 can promote RSK2 ubiquitination”.
